One block for each binder: values may come before it.
Key:
[1] = target: T1, 158P1D7 protein expressed on the cell surface (human, UniProt Q9H5Y7 27-841); assay: binding to 158P1D7 expressing cells; method not given
T1 construct: No signal peptide limits are stated; also called SLITRK6; SLITRK-6
T1 sequence: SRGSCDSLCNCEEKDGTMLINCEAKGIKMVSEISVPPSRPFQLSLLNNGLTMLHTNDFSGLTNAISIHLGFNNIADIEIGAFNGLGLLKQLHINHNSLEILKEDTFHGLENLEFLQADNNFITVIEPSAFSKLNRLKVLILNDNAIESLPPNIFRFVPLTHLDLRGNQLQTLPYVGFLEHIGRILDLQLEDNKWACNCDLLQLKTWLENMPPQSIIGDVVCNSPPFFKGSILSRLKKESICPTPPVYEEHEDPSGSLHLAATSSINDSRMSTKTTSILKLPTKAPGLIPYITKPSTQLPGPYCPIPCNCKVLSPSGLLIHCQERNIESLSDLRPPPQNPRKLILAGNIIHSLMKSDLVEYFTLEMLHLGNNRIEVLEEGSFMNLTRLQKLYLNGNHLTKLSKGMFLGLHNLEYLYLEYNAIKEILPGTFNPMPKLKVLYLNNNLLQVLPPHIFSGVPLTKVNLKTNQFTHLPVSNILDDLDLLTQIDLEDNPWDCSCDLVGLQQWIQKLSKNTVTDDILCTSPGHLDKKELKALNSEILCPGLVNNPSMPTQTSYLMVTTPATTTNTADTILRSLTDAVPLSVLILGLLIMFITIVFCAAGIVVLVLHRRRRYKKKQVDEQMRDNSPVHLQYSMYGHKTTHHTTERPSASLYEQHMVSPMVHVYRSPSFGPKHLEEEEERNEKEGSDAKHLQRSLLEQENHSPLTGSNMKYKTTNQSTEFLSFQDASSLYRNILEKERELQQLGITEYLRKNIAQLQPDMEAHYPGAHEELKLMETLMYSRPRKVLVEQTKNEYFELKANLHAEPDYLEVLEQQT

[2] = target: T1, 158P1D7 protein expressed on the cell …; assay: FACS saturation binding on SW780 cells, one site binding fit (Graphpad Prism)

binding result [1]: binds
B1: 158P1D7 MAb Ha15-10ac12 (antibody, human IgG2, kappa, V domains shown)
VH: QVQLVESGGGVVQPGRSLRLSCAASGFTFSSYGMHWVRQAPGKGLEWVAVIWYDGSNQYYADSVKGRFTISRDNSKNTLFLQMHSLRAEDTAVYYCARGLTSGRYGMDVWGQGTTVTVSS
VL: DIVMTQSPLSLPVTPGEPASISCRSSQSLLLSHGFNYLDWYLQKPGQSPQLLIYLGSSRASGVPDRFSGSGSGTDFTLKISRVEAEDVGLYYCMQPLQIPWTFGQGTKVEIKR
notes: Fully human IgG2 kappa antibody from XenoMouse; It was tested both as material purified from the hybridoma and as recombinant material from CHO-K1SV cells; also called Ha15-10ac12 MAb

Kd [2]: 5 pM
B2: Ha15-10ac12vcMMAE (other)
heavy: QVQLVESGGGVVQPGRSLRLSCAASGFTFSSYGMHWVRQAPGKGLEWVAVIWYDGSNQYYADSVKGRFTISRDNSKNTLFLQMHSLRAEDTAVYYCARGLTSGRYGMDVWGQGTTVTVSSASTKGPSVFPLAPCSRSTSESTAALGCLVKDYFPEPVTVSWNSGALTSGVHTFPAVLQSSGLYSLSSVVTVPSSNFGTQTYTCNVDHKPSNTKVDKTVERKCCVECPPCPAPPVAGPSVFLFPPKPKDTLMISRTPEVTCVVVDVSHEDPEVQFNWYVDGVEVHNAKTKPREEQFNSTFRVVSVLTVVHQDWLNGKEYKCKVSNKGLPAPIEKTISKTKGQPREPQVYTLPPSREEMTKNQVSLTCLVKGFYPSDIAVEWESNGQPENNYKTTPPMLDSDGSFFLYSKLTVDKSRWQQGNVFSCSVMHEALHNHYTQKSLSLSPGK
light: DIVMTQSPLSLPVTPGEPASISCRSSQSLLLSHGFNYLDWYLQKPGQSPQLLIYLGSSRASGVPDRFSGSGSGTDFTLKISRVEAEDVGLYYCMQPLQIPWTFGQGTKVEIKRTVAAPSVFIFPPSDEQLKSGTASVVCLLNNFYPREAKVQWKVDNALQSGNSQESVTEQDSKDSTYSLSSTLTLSKADYEKHKVYACEVTHQGLSSPVTKSFNRGEC
modifications: vcMMAE (Val-Cit linker with monomethyl auristatin E) on cysteine sulfur atoms after partial reduction of disulfides with TCEP; positions not given; vcMMAE (Val-Cit linker with monomethyl auristatin E) on cysteine sulfur atoms after partial reduction of disulfides with TCEP; positions not given; preferred p between 3.5 and 3.7 drugs per antibody
notes: also called 158P1D7 ADC; Ha15ac12vcMMAE

— patent USRE47103 (AGENSYS, dated 2018)
